Molecular target: alpha-thrombin (biotinylated, thrombin-BFPRck) (human, UniProt P00734;P00734 328-363;364-622)
Assay: BLI; 2 mM Ca2+; TBB: 20 mM HEPES pH 7.4, 150 mM NaCl, 2 mM CaCl2; room temperature (cell binding); BLI in TBB

B1: 5-12mini (structured_RNA)
RNA: GGGAGCUCAGAAUAAACGCUCAAGUUACUGAGCUCAGCAUGAGGCCCGGAUCCGGC
modifications: 2'-fluoro pyrimidines
Kd: ~5 nM

From article PMC4486934
